Assay results from the nanobody polyreactivity screen of Harvey et al. (2022).

Experiment: yeast display, Sf9 membrane polyspecificity reagent, FACS + sequencing; frameworks hold sequencing errors
In short: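 Galactose-induced (36–48 hours) yeast carrying a synthetic nanobody display library were exposed to 10% biotinylated, detergent-solubilized Sf9 membrane reagent at 4 °C for 1 hour. FACS followed streptavidin microbead enrichment, using low and high (top ~1%) gates for expression (anti-HA) and reagent binding (streptavidin). Colony PCR, MiSeq 2 × 250 sequencing and CDR-length filtering followed. Labels for polyreactivity reflect the gate of origin.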

Sequence | polyreactivity (PSR sort gate)
QVQLVESGGGLVQAGGSLRLSCAASGITFRSYAMGWYRQAPGKDRELVAAISRTGGRTYYADSVKGRFTISRDNAKNTVYLQMNSLKAEDSAVYYCAAGGYSPYSLVGYDYWGQGTQVTVSS | high polyreactivity
QVQLVESGGGLVQAGGSLRLSCAASGITFRYYAMGWYRQAPGKERELVATISSSGARTYYADSVKGRFTISRDNAKNTVYFQINSLKPEDTAVYYCNAVTFTLHSQPYDYWGQGTQVTVSS | high polyreactivity
QVQLVESGGGLVQAGGSLRLSCAASGITFRYYAMGWYRQAPGKERELVSVISKGGTSTYYADSVKGRFTISRDNAKITVYLQMNSLKPEDTAVYYCAAAYFSSGYKYYYWGQGNQVTVSS | high polyreactivity
QVQLVESGGGLVQAGGSLRLSCAASGITFRYYPMGWYRPAPGKQRELVAAISRTSGRTYYADSVKGRFTISRDNAKNTVYLQMNSLNPEDPAVYYCNKAWTPSLLYQSYYWGQGPQVTVSS | high polyreactivity
QVQLVESGGGLVQAGGSLRLSCAASGITFRYYTMGWYRQAPGKERELVAVISWSGGSTYYADSVKGRFTISRDNGKNTVYLQMNSLKPEDTAVYYCAAVRRISRYDYWGQGTQVTVSS | high polyreactivity
QVQLVESGGGLVQAGGSLRLSCAASGITFRYYVMGWYRQAPGKERELVASISWGGGSTYYADSVKGRFTISRDNAKNTVYLQMNSLKPEDTAVYYCAARVPRPSYRGMNYWGQGTQVTVSS | high polyreactivity
QVQLVESGGGLVQAGGSLRLSCAASGITFSFYAMGWYRQAPAKERELVATIDSGGSTNYADSVKWRFTISRDNAKNTVYLQMNSLKPEYTAVYYCAADGVWYYYDMDYWGQGTQVTVSS | low polyreactivity
QVQLVESGGGLVQAGGSLRLSCAASGITFSFYAMGWYRQAPRKERELVAGITRSGGDTYYADSVKGRFTISRDNAKNTVYLQMNSLKPEDTAVYDCADAWFFYRRQYTFFAGRMDYWGQGTQVTVSS | high polyreactivity
QVQLVESGGGLVQAGGSLRLSCAASGITFSGNAMGWYIQARGKERELVAGISRRGGSTYYADSVKGSFTISRDNAKNTVYLQINCLKPEATAVYYCADGRDRYRGVAYDYWGQGTQVTVSS | high polyreactivity
QVQLVESGGGLVQAGGSLRLSCAASGITFSGNAMGWYRQAPGKERELVAAISGRGGSTYYADSVKGRFTISRDNAKNTVYLQMNSLKPVDTAVYYCAADSPENRYNYWGQGTQVTVSS | high polyreactivity
QVQLVESGGGLVQAGGSLRLSCAASGITFSGNTMGWYRQAPGKERELVAAISSGGSTYYADSVKGRFTISRDNAKNTVYLQMNSLKPEDTAVYYCAVDYFYQDGRGYNEYWGQGTQVTVSS | low polyreactivity
QVQLVESGGGLVQAGGSLRLSCAASGITFSGYVMGWYLQAPGKERELVAAISRSGGSTYYADSVKGRYTISRDNAKNTVYLQMNSLKPEDTAVYYCATASRTSRTGWAGYFWGQGTQVTVSS | high polyreactivity
QVQLVESGGGLVQAGGSLRLSCAASGITFSHNAMGWSRPAPGKERELVAVIRWSGGRTYYADSVKGRFTISRDNAKNTVYLQMNSLKPEDTAVYYCAARPSTAFPYGKIMDYWGQGTQVTVSS | low polyreactivity
QVQLVESGGGLVQAGGSLRLSCAASGITFSKNAMGWYRKEPGKEKELVAAISRGGSTYYADSEKGRFTISRDNAKNTVYLQMNSLKPEDTAVYYCAARSRYYYRRPQISYDYWGQGTQVTVSS | low polyreactivity
QVQLVESGGGLVQAGGSLRLSCAASGITFSKYAMGWYRQAPGKERELVAAISQRGGSKYYADSVKGRFTISRDNAKNTVYLQMNSLKPEDTAVYYCNAEFYWSIIAYEYWGQGTQVTVSS | high polyreactivity
QVQLVESGGGLVQAGGSLRLSCAASGITFSRNAMGWYRQAPGKERELVATITSGGSTNYADSVKGRFTISRDNAQNTVYLQMNSLKPEDTAVYYCNAVWNTFISGRSYDYWGQGTQVTVSS | low polyreactivity
QVQLVESGGGLVQAGGSLRLSCAASGITFSRNTMGWYRQAPGKERELVAAISRSGASTYYADSVKGRFTISRDNAKNTVYLQMNSLKPEDTAVYYCAARFHYPGGPRYYYWGQGTQVTVSS | high polyreactivity
QVQLVESGGGLVQAGGSLRLSCAASGITFSRYAMGWYRQAPGKERELVAAISWSGTSTYYADSVKGRFTISRDNAKNTVYLQMNSLKPEDTAVYYCAASYGYYRYGYWGQGTQVTVSS | high polyreactivity
QVQLVESGGGLVQAGGSLRLSCAASGITFSRYAMGWYRQAPGKERELVATITFSGTSTFYADSVKGRFTISRDNAKNRFYLQMNSLKPEDTAVYYCARLRFGSWSTYYYWGQGTQVTVSS | low polyreactivity
QVQLVESGGGLVQAGGSLRLSCAASGITFSRYAMGWYRQAPGKERELVATITFSGTSTFYADSVKGRFTISRDNAKNTVYLQMNSLKPEDTAVYYCARLRFGSWSTYYYWGQGTQVTVSS | low polyreactivity
QVQLVESGGGLVQAGGSLRLSCAASGITFSSNAMGWSRQAPGKERELVAAISSSGGRTYYADSVKVRFTISRDYAKNTVYLQMNSLKPEDTAVYYCAKTSRYYYYSRLYYWGQGTKVTVSS | high polyreactivity
QVQLVESGGGLVQAGGSLRLSCAASGITFSSYAMGWSRQAPGKERELVAAITSRGGSTYYADSVKGRFTISRDNAKNTVYLQMNSLKPEDTAVYYCNASRVRRWNDYYKKFDYWGQGTQVTVSS | high polyreactivity

Sequence | polyreactivity (PSR sort gate)
QVQLVESGGGLVQAGGSLRLSCAASGITFSSYAMGWYRQAPGKERELVAGITRRGGITYYADSVKGRFTISRDNAKNTVYLQMNSLNPEDTAVYYCAATHRFRSGSPDGGYGYWGQGTQVTVSS | high polyreactivity
QVQLVESGGGLVQAGGSLRLSCAASGITFSSYAMGWYRQAPGKERELVAGITRRGRITYYADSVNGRFTISRDNAKNTVYLQMNSLKPEDTAVYYCAATHRFRTGSPDGGFGYWGQGTQVTVSS | high polyreactivity
QVQLVESGGGLVQAGGSLRLSCAASGITFSVYTMGWYRPAPGKERELVAAIDSDGITNYADSVKGRFTISRDNAKNNVYLQMNSLKPEDTAVYYCAKQSGRADGVSGFDYWGQGTQVTVSS | low polyreactivity
QVQLVESGGGLVQAGGSLRLSCAASGITFSYNAMGWSRQAPGKERELVAAISSNSDSTYYADSVKGRFTISRDNAKNTVYLQMNSLKPEDTAVYYCAADTPDAPDYSGFYYWGQGSQVTVSS | low polyreactivity
QVQLVESGGGLVQAGGSLRLSCAASGITFSYNAMGWYRPAPGKERELVAAIRVGDGSTYYADSVKGRFTISRDNAKNTVYLQMNSLNPEDTAVYYCNARYLRLRYPYTDEYNYWGQGTQVTVSS | low polyreactivity
QVQLVESGGGLVQAGGSLRLSCAASGITFSYNAMGWYRPAPGKERELVAAISSNSDSTYYADSVKGRFTISRDNAKNTVYLQMNSLKPEDTAVYYCAADTPDAPDYSGFYYWGQGTQVTVSS | low polyreactivity
QVQLVESGGGLVQAGGSLRLSCAASGITFSYNARGWYRQAPGKERELVAAIRVGDGSTYYADSVKGRFTISRDNAKNTVYLQMHSLKPEDTAVYYWNARYLRLRYPYTDEYNYWGQGTQVTVSS | low polyreactivity
QVQLVESGGGLVQAGGSLRLSCAASGITFSYYALGWYRQAPGKERELVAVISAGGGTTYYADSVKGRFTISRDNAKNTVYLQMNSLKPEDTAVYYCAVKIVVWWGEYDYWGQGTQVTVSS | high polyreactivity
QVQLVESGGGLVQAGGSLRLSCAASGITFTDYAMGWYRQAPGKERELVAAISSRGGSTYYADSVQGRFTISRDNAKNTVYVQMNSLKPEDTAVHYCNARFVRRGSGYDYWGQGTQVTVSS | high polyreactivity
QVQLVESGGGLVQAGGSLRLSCAASGITFTGNAMGWYRQAPGKERELVAAISNRGGSTYYADSVKGRFTISRDNAKNTVYLQMNSLKPEDTAVYYCRTSTPRRVSGNSWGQGTQVTVSS | high polyreactivity
QVQLVESGGGLVQAGGSLRLSCAASGITFTGNAMGWYRQAPGKERELVAAISNRGGSTYYADSVKGRFTISRDNAKNTVYLQMNSLKPEDTAVYYCRTSTPRRVSGNYWGQGTQVTVTS | high polyreactivity
QVQLVESGGGLVQAGGSLRLSCAASGITFTGYAMGWSRQAPGKERELVAAISKRGARTYYADSVKGRFTNSRDNAKNTVYIQMNSLKPEDTAVYYCAADSTAQDIAGLYYWGQGTQVTVSS | high polyreactivity
QVQLVESGGGLVQAGGSLRLSCAASGITFTGYAMGWYRQAPGKERELVAAITWSSGSTYYADSVKGRFTISRDNAKNTVYLQMNSLKPEDTAVYYCNAGYWYDGPDYIPEYDYWGQGTQVTVSS | low polyreactivity
QVQLVESGGGLVQAGGSLRLSCAASGITFTVNAMGWYRQAPGKERELVAAITYSGGNTYYADSVKGRFTISRDTAKNTVYLQMNSLKPEDTAVYYCAADNWPWPEKPDKSILYDYWGQGTQVTVSS | low polyreactivity
QVQLVESGGGLVQAGGSLRLSCAASGITFTVNSMGWYRQAPAKERELVAAISNDGSTYYADSVKGRFTISRDNAKNSVYLQMNRLKTEDTAVYYCAADTWDVFGPYGYDYWGQGTQVTVSS | low polyreactivity
QVQLVESGGGLVQAGGSLRLSCAASGITFTVYAMGWYRQATRKERELVAAITSTGSTNYADSVKGLFTISRDNAKNTVYLQMNSLKPEDTAVYYCAADRQITVYAFDYWGQGTQVTVSS | low polyreactivity
QVQLVESGGGLVQAGGSLRLSCAASGITFTYNAMGWYRPAPGKERELVAAITWSGGSTFYADSVKGRFTISRDNAKNTVYLQMNSLKPEDTAVYYCARDTELYDRWLDYWGQGTQVTVSS | low polyreactivity
QVQLVESGGGLVQAGGSLRLSCAASGITFTYNAMGWYRQAPGKERELVAAITWSGGSTYYADSVKGRFTISRDNAKYTVYLQMNSLKPEDTAVYYCNAKHFAYSVAHPYLRYGYDYWGQGTQVTVSS | low polyreactivity
QVQLVESGGGLVQAGGSLRLSCAASGITFTYYAMGWYRQAPGKERELVAAINWNGGSTYYADSVKGRFTISRDNAKNTVYLQMNSLKPEDTAVYYCAAEFYIYGFVKFDYWGQGTQVTVSS | high polyreactivity
QVQLVESGGGLVQAGGSLRLSCAASGITFTYYAMGWYRQAPGKERELVASITIGGGSTYYADSVKGRFTISRDNAKKTVYLQLNSLKPEYTAVYYCNAAFSVRHLYRYDYWGQGTQVTVSL | low polyreactivity
QVQLVESGGGLVQAGGSLRLSCAASGITFTYYARGWYRQAPGKEMELVAAISWSGGSTYYADSVKGRFTISRDNAKNTVYLQMNSLKPEDTAVYYCAATFSRFAYYYWGQGTQVTVSS | high polyreactivity
